The text below walks through data of PMC7863765.

The target in the assay is T1, untagged full-length human 14-3-3ζ (human), P63104.
T1 chain: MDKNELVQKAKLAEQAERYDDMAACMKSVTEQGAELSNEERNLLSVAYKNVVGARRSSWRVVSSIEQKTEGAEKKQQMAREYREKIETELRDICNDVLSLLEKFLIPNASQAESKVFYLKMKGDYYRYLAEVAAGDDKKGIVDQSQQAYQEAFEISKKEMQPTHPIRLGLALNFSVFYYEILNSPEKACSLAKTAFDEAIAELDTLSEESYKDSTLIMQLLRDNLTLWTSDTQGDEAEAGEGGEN
Description: SEC. The note with it: remark: other sources report otherwise.

B1: untagged full-length human 14-3-3ζ, P63104 1-245 (natural protein)
chain: MDKNELVQKAKLAEQAERYDDMAACMKSVTEQGAELSNEERNLLSVAYKNVVGARRSSWRVVSSIEQKTEGAEKKQQMAREYREKIETELRDICNDVLSLLEKFLIPNASQAESKVFYLKMKGDYYRYLAEVAAGDDKKGIVDQSQQAYQEAFEISKKEMQPTHPIRLGLALNFSVFYYEILNSPEKACSLAKTAFDEAIAELDTLSEESYKDSTLIMQLLRDNLTLWTSDTQGDEAEAGEGGEN
The stoichiometry N is the number of molecules, sites or subunits per partner or assembly. B1 came in with a stoichiometry N of 2.
